Laboratory results from patent publication US20100248975A1, “Fluorogenic peptide substrate arrays for highly multiplexed, real-time monitoring of kinase activities” (priority 2006, published 2010).

Columns and labels:
[1] = system: combination of Abl and Src; test: Kinase substrate peptide array incubated with mixture of Abl and Src kinases, phospho-specific fluorescent stain; assay type: biochemical; details: incubation with combination of Abl and Src; 200 μM ATP, 10 mM MgCl2, 1 hour at 30° C.; FIG. 4C
Description: (§1) An array of 2520 peptides with 6 different amino acid sequences repeated 420 times was synthesized in situ. The six sequences were designed to represent wild type and two mutated versions of substrates of Abl and Src tyrosine kinases. The sequence of the peptides were: Abl (wt)—AIYAAPFK (SEQ ID NO:10); Abl (Mt 1)—ARYAAPDK (SEQ ID NO:11); Abl (Mt 2)—AIGAAPFK (SEQ ID NO:12); Src (wt)—EIYGEFKK (SEQ ID NO:13); Src (mt1)—EAYGEAKK (SEQ ID NO:14); and Src (mt2)—EIAGEFKK (SEQ ID NO:15), as shown in FIG. 3A.
(§2) The array was synthesized on amino derivatized silicon wafers coupled with dO-(N-Boc-2-aminoethyl)-O′—(N-diglycolyl-2-aminoethyl)hexaethyleneglycol molecule for spacing out the peptides from the surface. The peptides were synthesized using photodeprotection and t-Boc protected amino acids.
(§3) The kinase substrate array was then assayed for detecting Abl and Src kinase activity. The protecting groups of the side groups of amino acids were cleaved by HBr/TFA treatment for one hour in the presence of the scavengers thioanisole and pentamethylbenzene. The array was subsequently neutralized by 5% DIEA treatment for 5 minutes. The array was blocked with 2% BSA for 1 hour for eliminating non-specific sticking of the kinase to the array. […] The kinase mixture was washed off and the phosphorylated peptides were detected by incubating the array with a phospho-specific fluorescent stain.

Src kinase = Src kinase (Homo sapiens, UniProt P12931); test: Kinase substrate peptide array incubated with Src kinase alone, phospho-specific fluorescent stain; assay type: biochemical; details: incubation with Src alone; 200 μM ATP, 10 mM MgCl2, 1 hour at 30° C.; FIG. 4B
Description: as §1, §2, §3

[2] = system: T1, Abl (wt) substrate peptide AIYAAPFK
T1 sequence: AIYAAPFK

[3] = system: T2, Abl (Mt 2) substrate peptide AIGAAPFK
T2 sequence: AIGAAPFK

[4] = system: T3, Src (wt) substrate peptide EIYGEFKK
T3 sequence: EIYGEFKK

[5] = system: T4, Abl (Mt 1) substrate peptide ARYAAPDK
T4 sequence: ARYAAPDK

[6] = system: T5, Src (mt1) substrate peptide EAYGEAKK
T5 sequence: EAYGEAKK

[7] = system: T6, Src (mt2) substrate peptide EIAGEFKK
T6 sequence: EIAGEFKK

Abl kinase = Abl kinase (Homo sapiens, UniProt P00519); test: Kinase substrate peptide array incubated with Abl kinase alone, phospho-specific fluorescent stain; assay type: biochemical; details: incubation with Abl alone; 200 μM ATP, 10 mM MgCl2, 1 hour at 30° C.; FIG. 4A
Description: as §1, §2, §3

Sequence of Abl kinase (P00519 whole entry): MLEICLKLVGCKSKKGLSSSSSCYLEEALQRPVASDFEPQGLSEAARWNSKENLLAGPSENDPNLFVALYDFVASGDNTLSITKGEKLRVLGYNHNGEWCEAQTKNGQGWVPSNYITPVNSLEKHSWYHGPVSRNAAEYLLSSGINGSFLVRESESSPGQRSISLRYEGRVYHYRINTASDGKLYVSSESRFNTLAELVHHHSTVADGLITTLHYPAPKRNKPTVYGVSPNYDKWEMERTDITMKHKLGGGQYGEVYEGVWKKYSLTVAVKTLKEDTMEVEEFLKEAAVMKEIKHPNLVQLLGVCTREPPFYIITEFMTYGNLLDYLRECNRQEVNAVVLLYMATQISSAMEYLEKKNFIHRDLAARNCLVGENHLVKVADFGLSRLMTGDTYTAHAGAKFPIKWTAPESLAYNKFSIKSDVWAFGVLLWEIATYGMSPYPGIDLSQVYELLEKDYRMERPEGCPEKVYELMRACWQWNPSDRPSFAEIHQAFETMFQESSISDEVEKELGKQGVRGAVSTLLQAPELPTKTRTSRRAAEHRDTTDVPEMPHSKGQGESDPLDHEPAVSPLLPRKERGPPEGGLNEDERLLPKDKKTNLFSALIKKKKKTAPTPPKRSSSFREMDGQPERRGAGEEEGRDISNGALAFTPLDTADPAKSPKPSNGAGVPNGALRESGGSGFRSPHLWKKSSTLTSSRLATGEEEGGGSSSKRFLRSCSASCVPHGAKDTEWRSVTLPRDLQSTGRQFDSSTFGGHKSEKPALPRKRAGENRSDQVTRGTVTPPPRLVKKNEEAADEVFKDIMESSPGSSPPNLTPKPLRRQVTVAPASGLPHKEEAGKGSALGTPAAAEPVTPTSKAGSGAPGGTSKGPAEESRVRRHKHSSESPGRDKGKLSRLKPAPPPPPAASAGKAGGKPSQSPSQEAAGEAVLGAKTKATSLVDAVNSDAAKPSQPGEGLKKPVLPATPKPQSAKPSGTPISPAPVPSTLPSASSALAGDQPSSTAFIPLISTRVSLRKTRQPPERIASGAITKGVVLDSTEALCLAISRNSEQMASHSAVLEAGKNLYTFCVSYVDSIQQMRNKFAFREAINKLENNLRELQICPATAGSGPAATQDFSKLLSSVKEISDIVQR
Sequence of Abl kinase (Homo sapiens, UniProt P00519) (P00519 whole entry): as above

Row | Substance | phosphorylation of immobilized peptide (fluorescence of array spots) [1] | phosphorylation of immobilized peptide (fluorescence of array spots) (Src kinase) | phosphorylation of the arrayed peptide, detected with a phospho-specific fluorescent stain [2] | phosphorylation of the arrayed peptide, detected with a phospho-specific fluorescent stain [3] | phosphorylation of the arrayed peptide, detected with a phospho-specific fluorescent stain [4] | phosphorylation of the arrayed peptide, detected with a phospho-specific fluorescent stain [5] | phosphorylation of the arrayed peptide, detected with a phospho-specific fluorescent stain [6] | phosphorylation of the arrayed peptide, detected with a phospho-specific fluorescent stain [7] | phosphorylation of immobilized peptide (fluorescence of array spots) (Abl kinase)
1 | EIYGEFKK [SEQ ID NO:13, wild type substrate peptide of Src tyrosine kinase, synthesized in situ on array] | phosphorylated | phosphorylated |  |  |  |  |  |  | 
2 | Src kinase |  |  | only the corresponding wild type substrate peptide (either SEQ NO:10 or 13, respectively) was phosphorylated (this peptide not phosphorylated) | only the corresponding wild type substrate peptide (either SEQ NO:10 or 13, respectively) was phosphorylated (this peptide not phosphorylated) | in the presence of one kinase, only the corresponding wild type substrate peptide (either SEQ NO:10 or 13, respectively) was phosphorylated | only the corresponding wild type substrate peptide (either SEQ NO:10 or 13, respectively) was phosphorylated (this peptide not phosphorylated) | only the corresponding wild type substrate peptide (either SEQ NO:10 or 13, respectively) was phosphorylated (this peptide not phosphorylated) | only the corresponding wild type substrate peptide (either SEQ NO:10 or 13, respectively) was phosphorylated (this peptide not phosphorylated) | 
3 | Abl kinase |  |  | in the presence of one kinase, only the corresponding wild type substrate peptide (either SEQ NO:10 or 13, respectively) was phosphorylated | only the corresponding wild type substrate peptide (either SEQ NO:10 or 13, respectively) was phosphorylated (this peptide not phosphorylated) | only the corresponding wild type substrate peptide (either SEQ NO:10 or 13, respectively) was phosphorylated (this peptide not phosphorylated) | only the corresponding wild type substrate peptide (either SEQ NO:10 or 13, respectively) was phosphorylated (this peptide not phosphorylated) | only the corresponding wild type substrate peptide (either SEQ NO:10 or 13, respectively) was phosphorylated (this peptide not phosphorylated) | only the corresponding wild type substrate peptide (either SEQ NO:10 or 13, respectively) was phosphorylated (this peptide not phosphorylated) | 
4 | AIYAAPFK [SEQ ID NO:10, wild type substrate peptide of Abl tyrosine kinase, synthesized in situ on array] | phosphorylated |  |  |  |  |  |  |  | phosphorylated
